{"source": "patent US20170115280", "target": "reconstituted nascent HDL (rHDL) particle made with isolated human apoA-I (UniProt P02647)", "sequence (P02647 25-267)": "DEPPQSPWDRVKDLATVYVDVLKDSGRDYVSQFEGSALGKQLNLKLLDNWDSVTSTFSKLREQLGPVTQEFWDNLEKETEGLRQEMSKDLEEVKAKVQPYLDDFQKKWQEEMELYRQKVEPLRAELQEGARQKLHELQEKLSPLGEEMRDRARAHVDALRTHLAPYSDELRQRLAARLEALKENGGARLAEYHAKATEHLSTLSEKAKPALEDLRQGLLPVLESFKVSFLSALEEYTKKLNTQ", "data": [{"substance": "rPON1 Y293K mutant", "values": [{"measurement": "stability of arylesterase activity at 37° C. in the presence of HDL", "value": "the Y293K PON1 mutant shows the fastest rate of inactivation"}]}, {"substance": "rPON1 Y294K mutant", "values": [{"measurement": "stability of arylesterase activity at 37° C. in the presence of HDL", "value": "the rate of Y293K loss in activity is faster than either Y294K or WT PON1, and comparison of Y293K vs. Y294K shows significant difference as well"}]}, {"substance": "rPON1 pan K mutant (Leu9→Lys9, Tyr185→Lys185 and Tyr293→Lys293) with C-terminal His8 tag", "values": [{"measurement": "rate of inactivation of PON1 (arylesterase activity) with EDTA and β-mercaptoethanol in the presence of rHDL", "value": "no protective effects were observed when the pan K rPON1 mutant was incubated with either rHDL or detergent"}]}, {"substance": "recombinant paraoxonase 1 (PON1) variant G3C9, His-tagged (rPON1 WT)", "values": [{"measurement": "rate of inactivation of PON1 (arylesterase activity) with EDTA and β-mercaptoethanol in the presence of rHDL", "value": "A very slow inactivation of WT rPON1 was observed in the presence of rHDL"}, {"measurement": "stability of arylesterase activity at 37° C. in the presence of HDL", "value": "when HDL is present, WT PON1 is quite stable at 37 °C"}]}]}
